Legend:
[1] = molecular target: T1, CUB_C (CUB module and C-terminal peptide from human TSG-6), wild type (human, UniProt P98066 128-277); assay: SPR
T1 chain: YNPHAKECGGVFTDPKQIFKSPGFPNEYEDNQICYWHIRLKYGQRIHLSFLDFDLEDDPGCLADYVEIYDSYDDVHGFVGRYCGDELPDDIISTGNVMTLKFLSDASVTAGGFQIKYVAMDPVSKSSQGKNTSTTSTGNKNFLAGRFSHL

[2] = molecular target: T2, Full-length human TSG-6 (rhTSG-6), wild type (human, UniProt P98066 18-277); assay: SPR; + 10 mM EDTA
[3] = molecular target: T2, Full-length human TSG-6 (rhTSG-6), wild …; assay: SPR; + 10 mM EDTA; remark: listed apart in the source

koff [1]: 0.0004 s⁻¹
Kd [2]: 5.1 nM
koff [3]: 0.0051 s⁻¹
B1: Recombinant human heavy chain 1 (rHC1) of inter-alpha-inhibitor, wild type (natural protein)
chain: SKSSEKRQAVDTAVDGVFIRSLKVNCKVTSRFAHYVVTSQVVNTANEAREVAFDLEIPKTAFISDFAVTADGNAFIGDIKDKVTAWKQYRKAAISGENAGLVRASGRTMEQFTIHLTVNPQSKVTFQLTYEEVLKRNHMQYEIVIKVKPKQLVHHFEIDVDIFEPQGISKLDAQASFLPKELAAQTIKKSFSGKKGHVLFRPTVSQQQSCPTCSTSLLNGHFKVTYDVSRDKICDLLVANNHFAHFFAPQNLTNMNKNVVFVIDISGSMRGQKVKQTKEALLKILGDMQPGDYFDLVLFGTRVQSWKGSLVQASEANLQAAQDFVRGFSLDEATNLNGGLLRGIEILNQVQESLPELSNHASILIMLTDGDPTEGVTDRSQILKNVRNAIRGRFPLYNLGFGHNVDFNFLEVMSMENNGRAQRIYEDHDATQQLQGFYSQVAKPLLVDVDLQYPQDAVLALTQNHHKQYYEGSEIVVAGRIADNKQSSFKADVQAHGEGQEFSITCLVDEEEMKKLLRERGHMLENHVERLWAYLTIQELLAKRMKVDREERANLSSQALQMSLDYGFVTPLTSMSIRGMADQDGLKPTIDKPSEDSPPLEMLGPRRTFVLSALQPSPTHSSSNTQRLPDRVTGVDTD

Source: article PMC4661386 (2015)
